Laboratory results as given in patent US20160185837A1 (Medimmune Limited, priority 2013, published 2016).
Values belong to the molecule of their own block, whether it stands above or below them.

Tests used:
[1] = target: T1, human glucagon receptor (GCGr) (Homo sapiens, UniProt P47871); test: BSA-cAMP assay, cells expressing human glucagon receptor; format: cell-based; conditions: Batch 1, read-out: hGCGr cAMP activity EC50
T1 construct: expressed in transfected cells; host or cells: HEK293s or CHO cells
T1 sequence (P47871 26-477): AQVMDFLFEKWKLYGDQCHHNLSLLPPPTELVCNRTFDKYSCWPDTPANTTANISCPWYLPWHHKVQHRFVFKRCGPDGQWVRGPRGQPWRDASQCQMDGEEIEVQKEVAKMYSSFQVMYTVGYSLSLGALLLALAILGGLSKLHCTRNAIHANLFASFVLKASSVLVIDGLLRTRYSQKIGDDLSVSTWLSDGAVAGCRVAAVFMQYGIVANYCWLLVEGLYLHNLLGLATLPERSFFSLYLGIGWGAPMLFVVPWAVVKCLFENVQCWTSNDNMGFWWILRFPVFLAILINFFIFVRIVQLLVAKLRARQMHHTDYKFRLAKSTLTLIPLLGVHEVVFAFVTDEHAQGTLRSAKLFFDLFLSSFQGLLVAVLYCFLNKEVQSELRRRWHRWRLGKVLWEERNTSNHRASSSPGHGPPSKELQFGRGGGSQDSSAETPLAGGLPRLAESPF

[2] = target: T2, mouse GLP-1 receptor (mGLP-1r) (Mus musculus, UniProt O35659); test: BSA-cAMP assay, cells expressing mouse GLP-1 receptor; format: cell-based
T2 construct: expressed in transfected cells; host or cells: HEK293s or CHO cells
T2 sequence (O35659 22-463): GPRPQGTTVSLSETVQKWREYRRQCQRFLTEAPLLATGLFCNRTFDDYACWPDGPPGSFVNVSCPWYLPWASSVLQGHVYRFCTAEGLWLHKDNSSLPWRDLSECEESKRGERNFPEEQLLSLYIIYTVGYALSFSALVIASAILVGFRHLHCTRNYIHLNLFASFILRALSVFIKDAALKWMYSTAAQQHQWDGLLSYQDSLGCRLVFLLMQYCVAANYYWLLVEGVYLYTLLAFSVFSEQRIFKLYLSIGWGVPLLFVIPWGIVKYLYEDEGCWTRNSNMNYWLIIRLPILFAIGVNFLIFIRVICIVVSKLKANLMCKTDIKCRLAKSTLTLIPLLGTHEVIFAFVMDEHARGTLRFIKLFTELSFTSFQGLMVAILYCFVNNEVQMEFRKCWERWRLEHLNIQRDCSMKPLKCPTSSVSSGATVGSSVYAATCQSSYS
How it was run: (§1)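 EC50 is the midpoint of an unconstrained 4-parameter logistic fit to HTRF cAMP data, expressed as percent of maximal native agonist response, from two separate occasions. Rodent (mouse, rat) GLP-1R- or GIPR-expressing cells were incubated with compound 30 min at room temperature in 0.1% BSA medium, in duplicate.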

rat GIP receptor (rGIPr) = target: T3, rat GIP receptor (rGIPr) (Rattus norvegicus, UniProt P43219); test: BSA-cAMP assay, cells expressing rat GIP receptor; format: cell-based
T3 construct: expressed in transfected cells; host or cells: HEK293s or CHO cells
T3 sequence (P43219 19-455): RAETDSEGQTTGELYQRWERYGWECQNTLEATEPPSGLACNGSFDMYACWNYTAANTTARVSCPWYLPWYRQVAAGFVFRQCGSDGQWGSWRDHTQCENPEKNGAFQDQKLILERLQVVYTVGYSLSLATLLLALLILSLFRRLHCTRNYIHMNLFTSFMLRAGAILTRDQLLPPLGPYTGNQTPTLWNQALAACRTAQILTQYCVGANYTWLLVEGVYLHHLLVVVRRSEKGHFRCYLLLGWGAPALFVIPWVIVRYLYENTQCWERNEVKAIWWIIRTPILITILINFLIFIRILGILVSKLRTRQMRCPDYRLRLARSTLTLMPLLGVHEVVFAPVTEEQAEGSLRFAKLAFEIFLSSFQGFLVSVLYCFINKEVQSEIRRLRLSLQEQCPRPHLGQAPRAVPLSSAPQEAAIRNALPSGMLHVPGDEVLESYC
How it was run: as §1

[3] = Preliminary pharmacokinetics in mouse, serum activity at hGLP-1r by cAMP assay; format: in vivo; conditions: 1 mg/kg subcutaneously, C57 Bl/6J mice, cAMP assay in HBSS/HEPES 0.1% BSA
Experimental: Preliminary pharmacokinetics in mouse was examined as follows: C57 Bl/6J mice were injected with 1 mg/kg (subcutaneously) with either IP088 or GLP1a-Fc, and serum samples were taken over time (3 animals per time point). The serum samples were then measured for activity at the hGLP-1r by the cAMP assay in HBSS/HEPES 0.1% BSA, as described above.

[4] = Extended pharmacokinetics, serum ELISA for protein (Fc) detection; format: in vivo, CD male rats; conditions: 1 mg/kg subcutaneously or intravenously, serum out to 168 hours
Experimental: More extended pharmacokinetic assays to determine protein stability and activity were performed as follows. CD male rats (n=3) were injected subcutaneously or intravenously with 1 mg/kg IP088 or GLP1a-Fc. Periodic serum samples were obtained out to 168 hours. The serum samples were subjected to ELISA for protein (Fc) detection by the following method. ELISA plates (Costar 3690) were coated with Mouse anti-human IgG (JCD-10) 1/500 in PBS (final concentration 1 μg/ml). […] was added to each well and the plates were incubated overnight at 4° C. Following washing with PBS-Tween (PBS-T), the plates were blocked with […] 1% BSA in PBS for 1 h at RT with gentle shaking. Following washing with PBS-T, standards, and dilutions of […] samples were added (50 μl/well), and the plate was incubated for 2 h at RT with gentle shaking. Following washing […] biotinylated mouse anti-human IgG (JCD-10) diluted 1/1000 in ELISA incubation buffer (final concentration 0.5 μg/ml) was added to each well and the plates were incubated for 1 h at RT with gentle shaking. Following washing […] of Streptavidin-HRP diluted 1/1000 in ELISA incubation buffer was added to each well, and the plates were incubated for 45 min at RT with gentle shaking. […]

EC50 [1]: > 1300 nM
EC50 ([2]; Batch 1, BSA-cAMP assay, read-out: mGLP1r cAMP activity EC50): 390 nM
EC50 (rat GIP receptor (rGIPr); Batch 1, BSA-cAMP assay, read-out: rGIPr cAMP activity EC50): 0.0099 nM
B1: IP367 (protein)
chain: YSEGTFTSDYRILKERQAIDEFIAWLLKGGAAAGGSGSTASSGSGSATGGGGAATHTCPPC

potency for GLP-1r, in words ([2]; mouse receptor): high potency
potency for GIPr, in words (rat GIP receptor (rGIPr); rat receptor): high potencies
B2: IP088: Fc fusion, IgG1-TM, SEQ ID NO:105; agonist peptide YSEGTFTSDYSKLLEEEAVRLFIEWLVKGP (SEQ ID NO:15) (protein)
chain: YSEGTFTSDYSKLLEEEAVRLFIEWLVKGPAAAGGSGSTASSGSGSATGGGGAATHTCPPCPAPEF
modifications: also: Fc fusion, IgG1-TM
time for which serum activity at hGLP-1r is maintained in the nanomolar range in vivo [3]: at least 48 hours
PK profile by Fc ELISA (Cmax, bioavailability, half-life), in words [4]: equivalent PK profiles
